Key:
[1] = system: BALF2 wild type (Epstein-Barr virus (EBV)); assay: fluorescence anisotropy; conditions: not in material (Methods absent); anisotropy titrations in triplicate
[2] = system: BALF2 Δ52 (Epstein-Barr virus (EBV)); assay: fluorescence anisotropy; conditions: not in material (Methods absent); anisotropy titrations in triplicate

## 16-mer ssDNA
[1]
  Kd: 232 nM
[2]
  Kd: 1040 nM
